# Paper PMC4151697 (Biochemistry, 2014)
# Residue numbers refer to the chain shown, from its start. Numbers in names are those of the source.
# B1: Cp149-C61S (Cp149 with C61 mutated to serine) (domain or fragment, hepatitis B virus, UniProt P03147 1-149, looked up)
# chain: MDIDPYKEFGATVELLSFLPSDFFPSVRDLLDTAAALYRDALESPEHCSPHHTALRQAILSWGDLMTLATWVGTNLEDPASRDLVVSYVNTNVGLKFRQLLWFHISCLTFGRETVLEYLVSFGVWIRTPPAYRPPNAPILSTLPETTVV
# B2: Cp149re-red (partially re-reduced Cp149ox) (domain or fragment, hepatitis B virus, UniProt P03147 1-149, looked up)
# chain: B1 chain with S61C
# modifications: intradimer C61–C61 disulfide in most dimers (only ∼20% of Cp149ox could be reduced)
# B3: Cp149red (reduced HBV core protein assembly domain, amino acids 1–149, homodimer) (domain or fragment, hepatitis B virus, UniProt P03147 1-149, looked up)
# chain: B1 chain with S61C
# B4: Cp149ox (fully oxidized Cp149 dimer with the intradimer C61–C61 disulfide) (domain or fragment, hepatitis B virus, UniProt P03147 1-149, looked up)
# chain: B1 chain with S61C
# modifications: intradimer C61–C61 disulfide (fully oxidized)
# Assays:
# SEC [1] = target: the molecule itself; assay: SEC
# light scattering = target: the molecule itself; assay: light scattering
# SEC [2] = target: the molecule itself; assay: SEC; remark: listed apart in the source
protein,measurement,setting,value
B1,pseudocritical concentration,SEC [1],5.9 µM
B2,pseudocritical concentration,SEC [1],6.5 µM
B3,pseudocritical concentration,SEC [1],4.7 µM
B4,amount of capsid relative to Cp149red,light scattering,~40%
same,fold slower elongation rate constant than Cp149red,light scattering,1.7 fold
same,Kd,SEC [2],4 ± 0.2 µM
